{"source": "paper PMC3701661", "about": "“The Serine Protease Domain of MASP-3: Enzymatic Properties and Crystal Structure in Complex with Ecotin” (PLoS ONE, 2013)", "binders": {"B1": {"name": "Ecotin (E. coli pan-serine protease inhibitor) (natural protein)", "chain": "not shown", "notes": "residues numbered 1 onwards in the structure (P1 residue Met84); Homodimer (molecular mass 32 kDa as printed); also called ecotin dimer; source: bought: Gentaur Molecular Products"}}, "key": {"[1]": {"biological_target": "T1, Coagulation factor XIa (human plasma) (human, UniProt P03951 19-387; P03951 388-625)", "T1 construct": "coagulation factor XIa heavy chain, human plasma; coagulation factor XIa light chain (catalytic domain), human plasma; also called fXIa; source: bought: Calbiochem (human plasma)", "T1 sequence (P03951 19-387, chain 1 of 2)": "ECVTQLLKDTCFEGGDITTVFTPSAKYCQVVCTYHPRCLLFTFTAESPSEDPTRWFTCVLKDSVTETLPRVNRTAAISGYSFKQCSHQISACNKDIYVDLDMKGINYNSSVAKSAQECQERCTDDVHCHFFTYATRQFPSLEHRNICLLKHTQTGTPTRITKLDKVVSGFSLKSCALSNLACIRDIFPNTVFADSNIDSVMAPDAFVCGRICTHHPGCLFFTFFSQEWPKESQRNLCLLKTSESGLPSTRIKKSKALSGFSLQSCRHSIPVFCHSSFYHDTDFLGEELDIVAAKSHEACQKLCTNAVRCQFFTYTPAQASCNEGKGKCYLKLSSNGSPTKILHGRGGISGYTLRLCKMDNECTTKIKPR", "T1 sequence (P03951 388-625, chain 2 of 2)": "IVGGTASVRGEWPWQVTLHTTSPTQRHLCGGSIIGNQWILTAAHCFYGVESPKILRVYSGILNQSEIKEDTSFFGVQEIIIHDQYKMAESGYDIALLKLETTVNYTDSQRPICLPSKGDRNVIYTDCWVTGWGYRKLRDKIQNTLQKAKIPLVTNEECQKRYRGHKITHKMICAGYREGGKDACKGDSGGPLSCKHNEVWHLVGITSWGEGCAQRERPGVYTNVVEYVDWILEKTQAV", "assay": "SPR; ecotin (1,000 RU) amine-coupled on a CM5 chip; proteases injected at 20 µl/min in 145 mM NaCl, 50 mM triethanolamine-HCl, pH 7.4, 0.005% surfactant P20; global fit to a 1:1 Langmuir model, at least five concentrations; apparent KD = kd/ka", "details": "both partners purified"}, "[2]": {"biological_target": "T2, MASP-3 serine protease (SP) domain (human, UniProt P48740-2 450-728, three N-linked oligosaccharide chains comprising two N-acetylglucosamine and five mannose residues)", "T2 construct": "numbers count on: the mature protein; Secreted with the melittin signal peptide, which was processed; also called MASP-3 SP; MASP-3 SP domain", "T2 sequence (looked up)": "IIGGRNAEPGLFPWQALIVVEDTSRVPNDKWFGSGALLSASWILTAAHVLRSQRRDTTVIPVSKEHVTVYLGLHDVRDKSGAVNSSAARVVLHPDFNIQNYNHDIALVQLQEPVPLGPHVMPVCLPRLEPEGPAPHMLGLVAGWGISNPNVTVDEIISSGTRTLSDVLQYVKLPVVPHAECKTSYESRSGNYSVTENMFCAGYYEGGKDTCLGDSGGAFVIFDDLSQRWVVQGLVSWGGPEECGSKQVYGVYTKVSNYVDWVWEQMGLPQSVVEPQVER", "assay": "SPR; ecotin (1,000 RU) amine-coupled on a CM5 chip; proteases injected at 20 µl/min in 145 mM NaCl, 50 mM triethanolamine-HCl, pH 7.4, 0.005% surfactant P20; global fit to a 1:1 Langmuir model, at least five concentrations; apparent KD = kd/ka", "details": "both partners purified"}, "[3]": {"biological_target": "T3, MASP-2 CCP1/2-ap-SP fragment (human, UniProt O00187 298-686)", "T3 construct": "also called CCP1/2-ap-SP fragment of MASP-2; catalytic domain of MASP-2; source: baculovirus-infected insect cells, purified", "T3 sequence (O00187 298-686)": "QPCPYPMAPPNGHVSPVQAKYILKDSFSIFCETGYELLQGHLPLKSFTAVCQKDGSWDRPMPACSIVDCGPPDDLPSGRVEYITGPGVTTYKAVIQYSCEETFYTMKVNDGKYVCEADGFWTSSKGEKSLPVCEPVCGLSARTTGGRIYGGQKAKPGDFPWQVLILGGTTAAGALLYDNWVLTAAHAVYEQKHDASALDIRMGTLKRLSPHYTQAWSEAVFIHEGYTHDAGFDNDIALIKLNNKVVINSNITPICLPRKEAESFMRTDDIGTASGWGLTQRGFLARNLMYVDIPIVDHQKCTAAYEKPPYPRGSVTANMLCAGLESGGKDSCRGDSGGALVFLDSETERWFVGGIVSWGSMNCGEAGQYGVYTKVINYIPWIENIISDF", "assay": "SPR; ecotin (1,000 RU) amine-coupled on a CM5 chip; proteases injected at 20 µl/min in 145 mM NaCl, 50 mM triethanolamine-HCl, pH 7.4, 0.005% surfactant P20; global fit to a 1:1 Langmuir model, at least five concentrations; apparent KD = kd/ka", "details": "both partners purified"}, "[4]": {"biological_target": "the molecule itself", "assay": "SEC; MASP-3 SP and ecotin preincubated 20 min at room temperature (equimolar, 225 pmol; also various molar ratios), TSK G3000 SW column in 145 mM NaCl, 50 mM triethanolamine-HCl, pH 7.4, 1 ml/min; peaks analysed by N-terminal sequencing and SDS-PAGE"}, "[5]": {"biological_target": "T2, MASP-3 serine protease (SP) domain", "assay": "cell-based or functional assay"}}}
{"binder": "B1", "values": [{"measurement": "Kd", "setting": "[1]", "value": 1.38, "unit": "nM"}, {"measurement": "koff", "setting": "[1]", "value": 0.000169, "unit": "s⁻¹"}, {"measurement": "kon", "setting": "[1]", "value": 123000, "unit": "M⁻¹ s⁻¹"}, {"measurement": "Kd", "setting": "[2]", "value": 601, "unit": "nM"}, {"measurement": "koff", "setting": "[2]", "value": 0.000806, "unit": "s⁻¹"}, {"measurement": "kon", "setting": "[2]", "value": 1340, "unit": "M⁻¹ s⁻¹"}, {"measurement": "Kd", "setting": "[3]", "value": 24.7, "unit": "nM"}, {"measurement": "koff", "setting": "[3]", "value": 0.00228, "unit": "s⁻¹"}, {"measurement": "kon", "setting": "[3]", "value": 104000, "unit": "M⁻¹ s⁻¹"}, {"measurement": "stoichiometry N", "setting": "[4]", "value": 2}, {"measurement": "inhibition of FGR-AMC cleavage by the MASP-3 SP domain after incubation with ecotin at a 1:1 molar ratio", "setting": "[5]", "value": 82, "unit": "%"}]}
